Data set [1] addresses borneol dehydrogenase 1 from Salvia rosmarinus (SrBDH1) (Salvia rosmarinus). In words: cryo-EM structure; single-particle cryoEM, 1 mg/ml on UltrAuFoil R1.2/1.3 grids, Titan Krios 300 kV, Falcon 3EC, D2 symmetry imposed.
The target is the same in data set [2]. The data set is described as follows: SEC-MALS; Superdex 200 Increase 10/300 column, 18°C, miniDAWN TREOS detector with refractive-index detector. In general terms: Size exclusion chromatography separates by hydrodynamic size, large species first.
Data set [3] concerns the molecule itself. Described as above.

“And” between values parts separate entries of the source, which are not always exact repeats. Equal values may be shown once.

As for “borneol dehydrogenase 1 from Salvia rosmarinus (SrBDH1) (enzyme)”, the stoichiometry N in data set [1] and in data set [2] was 4 throughout.

B1: borneol dehydrogenase 2 from Salvia officinalis (SoBDH2) (enzyme)
chain: MATGAANVESPQSLPLRLLGRVALVTGGSSGIGESIVLLFRKHGAKVCIADVQDNQGQRLCETLGGSSDIAFCHCDVTIEDDVKRAVDFTVDKFGTLDIMVNNAGVSGPPCPDIRDFELSAFDRVFDINVRGVFIGMKHAARIMIPAKKGSIISISSVASTMGGLGPHAYTGSKHAVLGLTKNVAAELGKHGIRVNCVSPYAVATSLALAHLPEAERTEDTWDDFRRFVADNANLQGVELTMEDVANAVVFLASDEARYVSGMNLMVDGGFTSTNHALQVFRP
notes: borneol-type dehydrogenase SoBDH2 from Salvia officinalis, GenBank MT525099; synthetic gene codon-optimized for E. coli; theoretical molecular mass with the His6 tag 32.2 kDa; Homotetramer with D2 symmetry in cryoEM; also called Salvia officinialis borneol dehydrogenase 2; source: E. coli BL21-RIL, purified (Ni-NTA, SEC); not shown: His6, N-terminal, kept
On to B1, for which, in data set [3], the “stoichiometry N” value is 8 and 4.

Usually stoichiometry N stands for a count of units in the complex or per binding partner.

(Values after PMC8725159, “CryoEM analysis of small plant biocatalysts at sub-2 Å resolution” (Acta Crystallographica. Section D, Structural Biology, 2022).)
